Experimental data taken from patent US20210253725A1 (BIONTECH, published 2021).

B1: P018.S.09.A.C02 (antibody, V domains shown)
VH: QSVEESGGRLVTPGTPLTLTCTVSGIDLSSYVMSWVRQAPGKGLEWIGYIDYGGTAYYASWAKGRFTISKTSTTVELKITSPTIEDTATYFCARGGYGGYTLVTALWGPGTLVTVSS
VL: DIVMTQTPASVSEPVGGTVTIKCQASQSISSYLSWYQQKPGQPPKLLIYSTSTLASGVSSRFKGSGSGTEYTLTISDLESADAATYYCQTYYGGGPFGNGFGGGTEVVVK
notes: V regions on human Ig constant parts; also called AB27_147
B2: P018.S.10.A.H05 (antibody, V domains shown)
VH: QSLEESGGRLVTPGTPLTLTCTASGFSLSTYYMSWVRQAPGKGLEWIGIIYTSGSTYYASWAKGRFTISRNSTTVDLKITSPTTEDTATYFCARSRVPGDTTGLYYFNLWGPGTLVTVSS
VL: ALVMTQTPASVSAAVEGTVTINCQASENIYSNLAWYQQKPGQPPKLLIYHTSNLASGVPSRFKGSGAGTEFTLTISDLESDDAATYYCQSAYDSSSSDTFTFGGGTEVVVK
notes: V regions on human Ig constant parts; also called AB27_186
B3: P018.S.02.A.B01 (antibody, V domains shown)
VH: QSVEESGGRLVTPGTPLTLTCTVSGMDLSSYSMSWVRQAPGEGLEYIGFIGSSGGTYYASWAKGRFTISRTSTTVDLNITSPTTEDTATYFCARMLAGVYTRLDLWGQGTLVTVSS
VL: AQVLTQTPSSVSAAVGGTVTINCQASQSISSSYCSWYQQKPGQPPKLLIYKASTLASGVPSRFKGSGSGTQFTLTISDVQSDDAATYYCAGDFIASSGNAFGGGTEVVVK
notes: V regions on human Ig constant parts; also called AB27_29
B4: P018.S.06.A.H05 (antibody, V domains shown)
VH: QSLEESGGDLVQPEGSLTLTCKASGFDFSSTYWICWVRQAPGKGLEWIGCIDDSYAYTYYASWAKGRFTISKPSSTTVTLQVTSLTVADTATYFCARDGYPGYGVGSFNLWGPGTLVTVSS
VL: AIVMTQTPSSKSVPVGDTVTINCQASESVYSNNRLAWFQQKPGQPPKLLIYLASTLASGVPSRFKGSGSGTQFTLTISDVVSDDAATYYCAGYKSYSDDGTGFGGGTEVVVK
notes: V regions on human Ig constant parts; also called AB27_112
B5: P018.S.06.A.B01 (antibody, V domains shown)
VH: QSLEESGGGLVKPEGSLTLTCTASGFSFSSSYWICWVRQAPGKGLEWIGCIYAGTFSDTFYASWTKGRFTISKTSSTTVTLQMTSLTGADTATYFCARGHYYYTDNYTANGYGRGLTRLDLWGQGTLVTVSS
VL: AAVLTQTPSPVSAAVGGTVTISCQASQSVYNNNNLAWYQQKAGQPPKLLIYGASNLESGVPSRFKGSGSGTQFTLTISDLESDDAASYYCAGGYTTSGDNGFGGGTEVVVK
notes: V regions on human Ig constant parts; also called AB27_98
B6: P018.S.10.A.C01 (antibody, V domains shown)
VH: QSVEESGGRLVTPGTPLTLTCTLSGFSLSNYAMSWVRQAPGKGLEWIGVIYTSGTTHYASWAKGRFTISKTSTTVDLRMTSLTTEDTATYFCARSRYYGSGWGGYYFNLWGQGTLVTVSS
VL: DVVMTQTPSPVSAAVGGTVTINCQASEDIYSLLAWYQQKPGQRPKLLIYGASNLESGVPSRFKGSGSGTEYTLTISGVQSADAATYYCHGGTYTGSADINAFGGGTEVVVE
notes: V regions on human Ig constant parts; also called AB27_170
B7: P018.S.09.A.F06 (antibody, V domains shown)
VH: QSVEESGGRLVTPGGSLTLTCSVSGIDLSSYAMNWVRQAPGKGLEWIGIISTGGSTYYANWAKGRFTISKTSTTVDLKITSPTTEDTATYICARDVGGTTVPYYFDLWGPGTLVTVSS
VL: AYDMTQTPASMEVAVGGTVTIKCQASESISSWLAWYQQKPGQPPKPLIYEASRLASGVPSRFKGSGSGTEFTLTISGVESADAATYYCQQGYGSSDVHNIFGGGTEVVVK
notes: V regions on human Ig constant parts; also called AB27_158
B8: P018.S.05.A.D06 (antibody, V domains shown)
VH: QSVEESGGRLVTPGTPLTLTCTVSGFSLSSYWMSWVRQAPGKGLEWIGFIYGGSGDKYYASWAKGRFAISKTSTTVDLKITSPTTEDTATYFCARGGDGDGTYSSLWGQGTLVTVSS
VL: AQVLTQTPSPVSAAVGGTVTISCQSSESVAGKNLAWYQQKPGQPPKVLIYGTSNLASRVPSRFRGSGSGTQFTLTISDLESDDAATYYCQGYYSGGIYGFGGGTEVVVE
notes: V regions on human Ig constant parts; also called AB27_88
B9: P018.S.10.A.E02 (antibody, V domains shown)
VH: QEQLEESGGDLVKPEGSLTLTCTASGFSFSSSFYMCWVRQAPGKGLEWVACIYAEDSDYTYYASWAKGRFTISKTSSTTVTLQMTSLTAADTATYFCAREILYPTNTDSFDLWGPGTLVTVSS
VL: AFELTQTPSSVEAAVGGTVTIKCQASESFSSRLAWYQQKPGQPPKLLIYRASTLASGVPSRFKGSGSGTDFTLTISDLESADAAAYYCQAYVGISSGGYAFGGGTEVVVG
notes: V regions on human Ig constant parts; also called AB27_176
B10: P018.S.03.A.G05 (antibody, V domains shown)
VH: QSLEESGGDLVKPEGSLTLTCTASGFSFSSGGWICWVRQAPGRGLEWIACIYVGSSGTTHYASWAKGRFTISKTSSTTVTLQMTSLTAADTATYFCARGAVYGGGSYDNFHLWGPGTLVTVSS
VL: AYDMTQTPASVSEPVGGTVTIKCQASQSIGSYLSWYQQKPGQRPKLLIYAASTLASGVQSRFKGSGSGTDYTLTISGVQSDDAATYYCQQGYNISNLDNTFGGGTEVVVK
notes: V regions on human Ig constant parts; also called AB27_58
B11: P018.S.06.A.A05 (antibody, V domains shown)
VH: QSLEESGGRLVTPGTPLTLTCTVSGIDLSSYAMGWVRQAPGKGLELIGLIYASNRTHYATWAKGRFTISKSSTTVDLKATSLTTEDTATYFCGRYGRGSGGYYYGMDLWGPGTLVTVSS
VL: DVVMTQTPASVEAAVGGTVTIKCQASQSGDNYLSWYQQKSGQPPKLLIYLASTLASGVPSRFRGSRSGTEYTLTISDLESADAATYYCQNYCAGSGVCVGVAFGGGTEVVVK
notes: V regions on human Ig constant parts; also called AB27_97
B12: P018.S.09.A.E02 (antibody, V domains shown)
VH: QSLEESGGRLVTPGTPLTLTCTASGFTISSHHMTWVRQAPGEGLEWLGVIFPSGHTYYTSWAKGRFTISRTSTTVDLKMASLTIEDTATYFCVRDVGYFTLWGQGTLVTVSS
VL: AQVLTQTPSPVSAAVGGTVTISCQSSESVGGNNWLAWYQQKLGQPPKLLIYGASTLASGVPSRFSGSGSGTQFTLTISEVQSDDAATYYCQGYYSDVTNAFGGGTEVVVE
notes: V regions on human Ig constant parts; also called AB27_153
B13: P018.S.09.A.C06 (antibody, V domains shown)
VH: QSVEESGGRLVTPGTPLTLTCTVSGFSLSTYAMGWVRQAPGKGLEWIGIIYTGGSTYYASWAEGRFTISKTSTTVDLKITSPTPEDTATYFCTRDLGATYDYFDLWGQGTLVTVSS
VL: AYDMTQTPASVEVAVGGTVTIKCQASQSISTALAWYQQKPGQRPKLLIYDTSDLASGVPSRFSGSGSGTEFTLTISGVESADAATYYCQQGYRHTNVDNPFGGGTGVVVK
B14: P018.S.10.A.E04 (antibody, V domains shown)
VH: QSLEESGGDLVKPGASLTLTCTASGFSFSSSYWICWVRQAPGKGLEWVACISAPGSGSTFDASWAKGRFTISKTSSTTVTLQMTSLTAADTATYFCARFYAGGSGDYFDLWGPGTLVTVSS
VL: QIVMTQTPSSTSEPVGGTVSIKCQASQNIGSYLAWYQQKPGQPPKVLIYTTSDLASGVPSRFKGSGSGTQFTLTISDLESDDAATYYCLGVYGYSSDDVAFGGGTEVVVK
B15: P018.S.10.A.H02 (antibody, V domains shown)
VH: QSLEESGGRLVTPGGSLTLTCTVSGIDLSSYAMGWFRQAPGKGLEYIGIIYSSGSTWFANWVKGRFTISKTSTTVDLKMTSLTTEDTATYFCARYSAADHGDKFKLWGQGTLVTVSS
VL: AAVLTQTPSPVSAAVGGTVSISCQSSKNIFDNTRLSWFQQKPGQPPKQLIYGASTLASGVPSRFSGSGSGTQFTLTISGVQSDDAATYYCLGEYSSDSDTSFGGGTEVVVK

target: T1, CD27 expressed on the cell surface of HT1080_CD27 cells (human, UniProt P26842 20-260); test: cell-based or functional assay
T1 sequence (looked up): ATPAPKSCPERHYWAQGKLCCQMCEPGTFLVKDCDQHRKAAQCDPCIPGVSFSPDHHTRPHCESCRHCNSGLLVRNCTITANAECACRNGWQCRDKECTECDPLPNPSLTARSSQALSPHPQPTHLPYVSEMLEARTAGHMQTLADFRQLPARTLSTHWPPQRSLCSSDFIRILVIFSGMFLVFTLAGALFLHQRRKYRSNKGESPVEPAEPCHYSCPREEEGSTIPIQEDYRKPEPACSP
Throughout, for Functional assay Cross-linked by F(ab′)2 fragment IL-8: test concentration or dose not given here.
Throughout, for Functional assay IL-8: test concentration or dose not given here.

First: B1
Second: B2
The “Functional assay Cross-linked by F(ab′)2 fragment IL-8” value (shortened to “Functional assay Cross-linked”) of the first is lower: 1.07 abs. corr for the first, 1.11 abs. corr for the second.

Going from B3 to B4, the “Functional assay Cross-linked” value rises from 1.42 abs. corr to 1.56 abs. corr.

Compared with B5, B6 is lower in “Functional assay Cross-linked” value: 1.18 abs. corr for the first, 1.1 abs. corr for the second.

Compared with B7, B8 is lower in “Functional assay Cross-linked” value: 2.03 abs. corr for the first, 1.23 abs. corr for the second.

First: B9
Second: B10
The “Functional assay Cross-linked” value of the first is higher: 1.39 abs. corr for the first, 1.27 abs. corr for the second.

First: B11
Second: B12
The “Functional assay Cross-linked” value of the first is lower: 1.09 abs. corr for the first, 1.61 abs. corr for the second.

Compared with B1, B2 is lower in “Functional assay IL-8” value: 0.07 abs. corr for the first, -0.155 abs. corr for the second.

First: B3
Second: B4
The “Functional assay IL-8” value of the first is higher: 0.538 abs. corr for the first, 0.278 abs. corr for the second.

Going from B5 to B6, the “Functional assay IL-8” value falls from 0.106 abs. corr to -0.046 abs. corr.

Going from B7 to B8, the “Functional assay IL-8” value falls from 0.58 abs. corr to 0.338 abs. corr.

Going from B9 to B10, the “Functional assay IL-8” value falls from 0.23 abs. corr to 0.031 abs. corr.

First: B11
Second: B12
The “Functional assay IL-8” value of the first is higher: 0.433 abs. corr for the first, 0.172 abs. corr for the second.

target: T1, CD27 expressed on the cell surface of …; test: HT1080_CD27 cells, imaging; note: test concentration or dose not given here

First: B1
Second: B2
The “Cellular binding assay [RFU]” value of the first is higher: 323 RFU for the first, 313 RFU for the second.

First: B3
Second: B4
The “Cellular binding assay [RFU]” value of the first is higher: 332 RFU for the first, 308 RFU for the second.

First: B5
Second: B6
The “Cellular binding assay [RFU]” value of the first is higher: 279 RFU for the first, 266 RFU for the second.

First: B7
Second: B8
The “Cellular binding assay [RFU]” value of the first is lower: 218 RFU for the first, 323 RFU for the second.

Going from B9 to B10, the “Cellular binding assay [RFU]” value falls from 395 RFU to 269 RFU.

Compared with B11, B12 is higher in “Cellular binding assay [RFU]” value: 140 RFU for the first, 305 RFU for the second.

target: T1, CD27 expressed on the cell surface of …; test: cell-based or functional assay; remark: another data set of the same source

B13 and B14 are within 1.5-fold of each other in “EC 50 (IL-8 release, cross-linked)” value: 0.221 µg/mL for the first, 0.234 µg/mL for the second.

In the case of B15, the “EC 50 (IL-8 release, cross-linked)” value is reported as 0.122 µg/mL.

target: T2, CD27 protein (His-tagged, Sino Biological Inc. 10039-H08B1) (human, UniProt P26842 20-192); test: ELISA, coated His-tagged CD27; note: test concentration or dose not given here
T2 construct: bought protein coated on ELISA plates; also called TNFRSF7; not shown: His tag
T2 sequence (looked up): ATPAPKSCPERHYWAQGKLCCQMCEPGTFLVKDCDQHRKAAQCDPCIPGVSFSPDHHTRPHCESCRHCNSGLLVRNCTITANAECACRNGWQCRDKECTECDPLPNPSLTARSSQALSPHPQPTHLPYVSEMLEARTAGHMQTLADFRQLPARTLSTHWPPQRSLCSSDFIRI

Going from B1 to B2, the “ELISA [abs. corr.]” value rises from 2.94 abs. corr to 2.96 abs. corr.

Going from B3 to B4, the “ELISA [abs. corr.]” value rises from 2.93 abs. corr to 2.98 abs. corr.

Going from B5 to B6, the “ELISA [abs. corr.]” value falls from 2.94 abs. corr to 2.93 abs. corr.

Going from B7 to B8, the “ELISA [abs. corr.]” value falls from 2.98 abs. corr to 2.93 abs. corr.

Going from B9 to B10, the “ELISA [abs. corr.]” value falls from 3.02 abs. corr to 2.98 abs. corr.

Compared with B11, B12 is higher in “ELISA [abs. corr.]” value: 2.95 abs. corr for the first, 2.98 abs. corr for the second.
